Results taken from publication doi:10.1101/2020.07.01.182642v1.

Test system: Nc1ncnc2c1ncn2[C@@H]1O[C@H](COP(=O)(O)OP(=O)(O)OP(=O)(O)O)[C@@H](O)[C@H]1O
Experiment: Omnia kinase assay
Assay type: biochemical, Homo sapiens
Conditions: Sox peptide co-substrate, pH 7.5, 25 mM MgCl2, 25 °C

Row | Substance | Km [µM]
1 | CLK3 (R134-T484) (Homo sapiens) | 58.9 ± 20.3
2 | CLK3 (R134-T484) (Homo sapiens; A319V) | 8.6 ± 4.2
